The target of one data set is T1, HA3-RUB-GST, Q9SHE7.
T1 chain: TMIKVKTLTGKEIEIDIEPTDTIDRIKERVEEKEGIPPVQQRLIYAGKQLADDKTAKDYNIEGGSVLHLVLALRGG

For data set [1], the target named is HA3-UBQ-GST [GST: P08515].
In data set [2] the target is K48-tetraubiquitin chains, P0CG48.
Data set [3] concerns the target K63-tetraubiquitin chains, P0CG48.
Data set [4] addresses purified recombinant linear UB dimers.
The target in data set [5] is purified recombinant linear UB tetramers.
Data set [6] has as its target purified recombinant linear UB trimers.

Sequence of K63-tetraubiquitin chains, P0CG48 (P0CG48 whole entry, looked up): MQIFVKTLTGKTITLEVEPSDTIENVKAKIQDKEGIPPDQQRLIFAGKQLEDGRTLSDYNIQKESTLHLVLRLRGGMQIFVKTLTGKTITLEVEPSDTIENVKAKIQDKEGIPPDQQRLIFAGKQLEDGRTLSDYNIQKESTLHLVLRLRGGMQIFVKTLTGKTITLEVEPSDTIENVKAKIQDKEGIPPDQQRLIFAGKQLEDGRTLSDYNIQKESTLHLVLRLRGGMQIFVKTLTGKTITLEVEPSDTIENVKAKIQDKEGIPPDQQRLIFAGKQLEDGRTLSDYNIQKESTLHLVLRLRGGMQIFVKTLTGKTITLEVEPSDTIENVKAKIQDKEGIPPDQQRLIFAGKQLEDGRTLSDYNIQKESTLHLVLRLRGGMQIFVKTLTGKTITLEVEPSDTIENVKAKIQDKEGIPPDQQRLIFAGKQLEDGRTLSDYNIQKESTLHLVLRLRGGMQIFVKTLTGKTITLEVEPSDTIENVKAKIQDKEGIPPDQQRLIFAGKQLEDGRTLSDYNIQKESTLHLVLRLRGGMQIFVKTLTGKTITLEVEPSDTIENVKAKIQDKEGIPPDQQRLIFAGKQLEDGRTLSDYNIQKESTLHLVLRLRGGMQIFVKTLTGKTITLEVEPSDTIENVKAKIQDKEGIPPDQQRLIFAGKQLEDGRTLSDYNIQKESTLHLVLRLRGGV
Sequence of K48-tetraubiquitin chains, P0CG48 (P0CG48 whole entry, looked up): as above

B1: His-tagged OTU7a (protein)
chain: MAKTKQQKSKPKKQPHQKQGKDCDLSQFRAQLDALGLKIIQVTADGNCFFRAIADQLEGNEDEHNKYRNMIVLYIVKNREMFEPFIEDDVPFEDYCKTMDDDGTWAGNMELQAASLVTRSNICIHRNMSPRWYIRNFEDTRTRMIHLSYHDGEHYNSVRSKEDACGGPARPVVIEADAKVSAASKQAKATESKSKNKADKCHVNAGAIKVVMSGSCCDNTEKAEQVLLQVNGDVDAAIEFLIADQGMESLTENDTETASASDTINPKHASDSPMENTEQAREELIEEESASGNNSETVQAKCTTQTDDKKIPRNKTCPCGSKKKYKSCCGTATGRSSVKLLVSQTMESKKGRKNLRRGTSNEVEANAPDVGALCI
Take B1: the “in vitro deubiquitylation activity” value in the data set with HA3-RUB-GST, Q9SHE7 is “+”; in the data set with HA3-SUMO-GST, P55852 it was “-”; in data set [1], “++”; in data set [2], “+”; in data set [3] it was “++”; in data set [4], “-”. For the same protein, the “in vitro deubiquitylation activity” value in data set [5] and in data set [6] was “-” each time.

B2: His-tagged OTU9 (protein)
chain: MGYEPDPDALRWGLHDLEVCTLTNAGSCSSVTRYESGGGGTQGYVREGYNQPVTGYVDNDAVIAQFYQDELSRVARAEASGINSLSPTSVVAQDWPHPHQGQENQGEAIDITQESDILHNHNGNMEDKNVARIRFEGGQSSPSRDDDSVCSVEIEEESWSEVGKRLNQMIPIAHVPKINGELPSEDEQISDHERLFQRLQLYGLVENKIEGDGNCQFRSLSDQLYRSPEHHNFVREQVVNQLAYNREIYEGYVPMAYNDYLKAMKRNGEWGDHVTLQAAADLFGVRMFVITSFKDTCYIEILPHFQKSNRLICLSFWAEVHYNSIYPEGELPIPEGKKKKKYWVF
In the case of B2, the “in vitro deubiquitylation activity” value in the data set with HA3-RUB-GST, Q9SHE7 is on record as “+”; with HA3-SUMO-GST, P55852 it was “-”; in data set [1] it was “++”; in data set [2], “++”; in data set [3], “++”; in data set [4] it was “-”. Besides, the “in vitro deubiquitylation activity” value in data set [5] and in data set [6] was “-” throughout.

B3: GST-OTU10 (protein)
chain: MVSHEENTSIVEWFLGPHPYTYPPYGIEMIHEDDEVAVAHHHHHHQSGEYYREYEDHRSSDVDNDEIIARTLQDDFLQLEIAESNDYSHQNQQQQHQQEGYTNNYSNNNNGYAWNDQSPAVDYSSEWIGNDNDQDGRSDDSVNVFSCSSPSDTDEYVYSWESDQCDADGEFGRRLNQMVPIPYIPKINGEIPPEEEAVSDHERLRNRLEMFDFTEVKVPGDGNCQFRALADQLYKTADRHKHVRRQIVKQLKSRPDSYQGYVPMDFSDYLRKMSRSGEWGDHVTLQAAADAYRVKIVVLTSFKDTCYIEILPTSQESKGVIFLSFWAEVHYNAIYLNRDTSETELQRKRKWWRFGN
Turning to B3, the “in vitro deubiquitylation activity” value in the data set with HA3-RUB-GST, Q9SHE7 is recorded as “+”; with HA3-SUMO-GST, P55852 it was “-”; in data set [1] it was “++”; in data set [2], “++”; in data set [3], “+++”; in data set [4], “-”. In addition, the “in vitro deubiquitylation activity” value in data set [5] and in data set [6] was “-” each time.

Source of the values: patent US20150353909.
